The values that follow come from the nanobody polyreactivity screen of Harvey et al. (2022).

The nature of the data set: yeast display, Sf9 membrane polyspecificity reagent, FACS + sequencing; frameworks hold sequencing errors. The method in brief:
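After 36–48 hours of galactose induction, yeast (Saccharomyces cerevisiae BJ5465) displaying a synthetic nanobody library were stained at 4 °C for 1 hour with 10% biotinylated, detergent-solubilized Sf9 membrane reagent. Streptavidin microbeads enriched the stained cells before FACS sorting into low and high (top ~1%) gates on anti-HA and streptavidin fluorescence. Each clone's polyreactivity label reflects its gate of origin.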
As to “QVQLVESGGGLVQAGGSLRLSCAASGLIFGRYAMGWYRQAPGKERELVAAISSSGVRTYYADSVKGRFTISRDNAKNTVYLQMNSLNPEDTAVYYCAAYDWYISEDYRYYYFWEYDYWGQGTQVTVSS”, the “polyreactivity (PSR sort gate)” value is recorded as “high polyreactivity”. For “QVQLVESGGGLVQAGGSLRLSCAASGLIFGSYVMGWYRQAPGKERELVAAISSSGGSTYYADSVKVRFTISRDNENNTFYLQMNSLKPEDTAVYYCAARYTYSADKGYYWGQGTQVTVSS” the value was “high polyreactivity”.

Take “QVQLVESGGGLVQAGGSLRLSCAASGLIFGVNAMGWYRQAPGKERELVAGISGSTGSTYYADSVKGRFTISRDNAKNTLYVQMNSLKPEDSAVYYCAKRSRRRGYRYDYWGQGTQVTVSS”: the “polyreactivity (PSR sort gate)” value was “high polyreactivity”. In the case of “QVQLVESGGGLVQAGGSLRLSCAASGLIFGWYAMGWDRQAPGKERELVAAITRSGGSTYYADSVKGRFTISRDTAKNTVYLQMHSLKPEDTAVYSCAAEIHYSYTRGYGYWGQGTQVTVSS” it was “high polyreactivity”; in that of “QVQLVESGGGLVQAGGSLRLSCAASGLIFGWYAMGWYRQAPGKERELVAAITRSGGSTYYADSVKGRFTISRDNAKNTVYLQMNSLKPEDTAVYYCAARSYVPSYDYWGQGTQVTVSS”, “high polyreactivity”.

As for “QVQLVESGGGLVQAGGSLRLSCAASGLIFGWYAMGWYRQAPGKERELVAGISGSGGITYYADSVKGRFTISRDNAKNTVYLQMNSLKPEDTAVYYCATAAASHKYGYWGQGTQVTVSS”, the “polyreactivity (PSR sort gate)” value was “low polyreactivity”. “QVQLVESGGGLVQAGGSLRLSCAASGLIFGYNAMGWYRQAPGKEREFVAGISSSGVSTYYADSVKGRFTISRDNAKNTVYLQMNSLKPEDTAVYYCAADTVDLEFDYWGQGTQVTVSS”: the “polyreactivity (PSR sort gate)” value is “low polyreactivity”. For “QVQLVESGGGLVQAGGSLRLSCAASGLIFGYYAMGWYRQAPGKEREFVAAIDGSDGTTYYADSVKGRFTISRDNAKNTVYLQMTSQKPEDTAVYYCNADSSSYSSDLGYDYWGQGTQVTVSS” the value was “low polyreactivity”.

In the case of “QVQLVESGGGLVQAGGSLRLSCAASGLIFGYYAMGWYRQAPGKERELVARITRRGGSTYYADSVKGRFTISRDNAKNTVYLQRNSLKPEDTAVYYCAADWYSPRISREYDYWGQGTQVTVSS”, the “polyreactivity (PSR sort gate)” value is given as “high polyreactivity”. For “QVQLVESGGGLVQAGGSLRLSCAASGLIFHSYAMGWYRQAPGKERELVAAISKRGGSTYYADSVKGRFTISRDNAKNTVYLQMNSLKPEDTAVYYCAAGARGLYDYWGQGTQVTVSS” the value was “high polyreactivity”; for “QVQLVESGGGLVQAGGSLRLSCAASGLIFIFNTMGWYRQAPGKERELVAAISWSGTSTYYADSVKGRFTISRDNAKNTVYLQMHSLKPEDTAVYYCAARGYYYKYSTARRNYWGQGTQVTVSS”, “high polyreactivity”.

For “QVQLVESGGGLVQAGGSLRLSCAASGLIFIIYTMGWYRQAPGKERELVAAITRRGGITYYADSVKGRFTISRDYAKNTVYLQMNSLKPEDTAVYYCAVVRPYNIWYDYWGQGTQVTVSS”, the “polyreactivity (PSR sort gate)” value is “low polyreactivity”. For “QVQLVESGGGLVQAGGSLRLSCAASGLIFKFYPMGWYRQAPGKERELVASIRGSGDNTYYADSVKGRFTISRDNAKNTVYLQMNSLKPEDTAVYYCNARASYSWHGIRGKYDYWGQGTQVTVSS” the value was “high polyreactivity”; for “QVQLVESGGGLVQAGGSLRLSCAASGLIFKGYDMGWYRQAPGKERELVAAISSGSTNYADSVKGRFTISRDNAKNTGYLQMNSLKPEDTAVYYCNADLGRATFYQRVFIERGGYWGQGTQVTVSS”, “low polyreactivity”. In the case of “QVQLVESGGGLVQAGGSLRLSCAASGLIFKLNAMGWYRQAPGKARELVAAIRASTGSTYYADSVKGRFTISRDNAKNTVYLQMNSLKPEDTAVYYCAVRLRWYFFLMDYWGQGTQVTVSS” it was “high polyreactivity”.

In the case of “QVQLVESGGGLVQAGGSLRLSCAASGLIFLGNAMGWYRQAPGKERELVAAISRSGGTTYYADSVKGRFTISRDNEKNTVYLQMNSLKPEDTAVYYCNAYNPYYRATVSSRGYGYWGQGTQVTVSS”, the “polyreactivity (PSR sort gate)” value is reported as “high polyreactivity”. “QVQLVESGGGLVQAGGSLRLSCAASGLIFLGYARGWYRQSPGKERELVASIRTGGSTSYADSVKGRFTISRDNAKNTVYLQMNSLKPEDTAVYYCAADRGRPNLPGDYWGQGTQVTVSS”: the “polyreactivity (PSR sort gate)” value is given as “low polyreactivity”. “QVQLVESGGGLVQAGGSLRLSCAASGLIFLPYAMGWYRQAPGKERELVAAIRWSDDSTYYADSVKGRFTILRDNAKNTVYLQMNSLKPEDTAVYYCNAYVYRPSYIYNYYYEYDYWGQGTQVTVSS”: the “polyreactivity (PSR sort gate)” value is listed as “high polyreactivity”. For “QVQLVESGGGLVQAGGSLRLSCAASGLIFNLYAMGWYSQAPGKEREFVATITGIGGSTYYADSVKGRFTISRDNAKNTVYLQMNSLKPQDTAVYYCAADAWFLPYNYWGQGTQVTVSS” the value was “low polyreactivity”; for “QVQLVESGGGLVQAGGSLRLSCAASGLIFPIYTMGWYRQAPGKERELVAAISSRGGSTYYADSVKGRFTISRDNAKNTVYLQMNSLKPEDTAVYYCAAQFRFSGMGYWGQGTQVTVSS”, “high polyreactivity”; for “QVQLVESGGGLVQAGGSLRLSCAASGLIFPVYTLGWYRPAPGKERELVAAITSSGDSTYYADSVKGRFTISRDNAKNTVYVQMNSLKPEDTAVYYCAARLVEKYGGTYSFDYWGQGTQVTVSS”, “low polyreactivity”. In the case of “QVQLVESGGGLVQAGGSLRLSCAASGLIFPYYAMGWYRQAPGKERELVAAISGSGGRTYNADSVKWRFTISRDNAKNTVYLQMNSLKPEDPAVYYCAAAVLDRYTRYIWYIFDYWGQGTQVTVSS” it was “high polyreactivity”; in that of “QVQLVESGGGLVQAGGSLRLSCAASGLIFPYYAMGWYRQAPGKERELVATITRSGGNTYYADSVKGRFTISRDNAKNTVYLQMNSLKPEDTAVYYCATRYAGYRSYGYWGQGTQVTVLS”, “high polyreactivity”.

For the sequence “QVQLVESGGGLVQAGGSLRLSCAASGLIFQVYDMGWYRQAPGKERELVAAISSGSNTNYADSVKGRFTISRDNAKNTVYLQMNSLKPEDTAVYYCAASLGYGAMTPDMGYWGQVTQVTVSS”, the “polyreactivity (PSR sort gate)” value is on record as “low polyreactivity”. In the case of “QVQLVESGGGLVQAGGSLRLSCAASGLIFRFYAMGWYRQAPGKERELVAAISSRGGSTYYADSVKGRFTISRDNAKNTVYLQMNSLKPEDTAVYYCAAVFSLIASSYDYWGQGTQVTVSS” it was “high polyreactivity”; in that of “QVQLVESGGGLVQAGGSLRLSCAASGLIFRPYAMGWYRQAPGKEREFVAAITWSTGSTYYADSVKGRFTISRDYAKNTVYLQMNSLKPEDTAVYYCAARYTVWRRDYNYWGQGTQVTVSS”, “high polyreactivity”.

Consider “QVQLVESGGGLVQAGGSLRLSCAASGLIFRQYPMGWYRQAPGKERELVAAITGSGGRTYYADSVKGRFTISRDNAKNTVYLQMNSLKPEDTAVYYCARPNLLSGDYWGQGTQVTVSS”, for which the “polyreactivity (PSR sort gate)” value is “high polyreactivity”. “QVQLVESGGGLVQAGGSLRLSCAASGLIFRRYAMGWYRQAPGKERELVAAITRNGGSTYYADSVKGRFTISRDNAKNTVYLQMNSLKPEDTAVYYCAADRYRRRGGLDYWGQGTQVTVSS”: the “polyreactivity (PSR sort gate)” value is “high polyreactivity”. Consider “QVQLVESGGGLVQAGGSLRLSCAASGLIFRRYAMGWYRTAPGKERELVAAISSSGSTYYADSVKGRFTISRDNAKNTVYLQMNSLKPEDTAVYYCNKVTGRNADRYGYWGQGTQVTVSS”, for which the “polyreactivity (PSR sort gate)” value is “high polyreactivity”. Turning to “QVQLVESGGGLVQAGGSLRLSCAASGLIFRRYTMGRYRQATGKERELVAAISRGGASTSYADSVKGRFTISRDNAKNTVYLQMNSLIPEDTAVYYCAATSPRSSRTYAYDYWGQGTQVTVSS”, the “polyreactivity (PSR sort gate)” value is “high polyreactivity”. In the case of “QVQLVESGGGLVQAGGSLRLSCAASGLIFRVYAMGWYRQAPGKERELVATITRGGRTYYADSVKGRFTISRDNAKNTVYLQMNSLKPEDTAVYYCAVLSVRRSYNYWGQGTQVTVSS” it was “high polyreactivity”. Consider “QVQLVESGGGLVQAGGSLRLSCAASGLIFRWYAMGWYRQAPGTERELVAAISRRGGTTNYADSVKGRFTISRDNAKNTVYLQMNSLKPEDTAVYYCAADYQSVGGAEYDYWGQCTQVTVSS”, for which the “polyreactivity (PSR sort gate)” value is reported as “high polyreactivity”.

For the sequence “QVQLVESGGGLVQAGGSLRLSCAASGLIFRYNTMGWYRQAPGKERELVAAITSSGGSTYYADSVKGRFTISRDNAKNTVYLQMNSLKPEDTAVYYCAKRSFYFSDYDYWGQGTQVTVSS”, the “polyreactivity (PSR sort gate)” value was “high polyreactivity”.

Consider “QVQLVESGGGLVQAGGSLRLSCAASGLIFRYYAMGWYRQAPGKERELVAAISWSGASTYYADSVKGRFTISRDNAKNTVYLQMNSLKPEDTAVYYCGRVSYYYPSEYNYWGQGTQVTVSS”, for which the “polyreactivity (PSR sort gate)” value is “high polyreactivity”.

Turning to “QVQLVESGGGLVQAGGSLRLSCAASGLIFRYYAMGWYRQAPGKERELVAVINYSGGRTYYADSVKGRFTISRDNAKNTVYLQMNSLKPEDTAVYYCAASFASKYEYWGQGTQVTVSS”, the “polyreactivity (PSR sort gate)” value was “high polyreactivity”. On to “QVQLVESGGGLVQAGGSLRLSCAASGLIFRYYAMGWYRQAPGKERELVAVISRRGDSTYYADSVKGRFTISRDNAKNTVYLHMNSLKPEDTAVYYCAAQAFVSYFKFRGGYWGQGTQVTVSS”, for which the “polyreactivity (PSR sort gate)” value was “high polyreactivity”.

Regarding “QVQLVESGGGLVQAGGSLRLSCAASGLIFRYYTMGWYRQAPGKERELVATITKSGSSTYYADSVKGRFTISRDNAKNTVYLQMNSLKPEDTAVYYCAARAYPSYPRGVYAYYYWGQGTQVTVSS”, the “polyreactivity (PSR sort gate)” value was “high polyreactivity”. Regarding “QVQLVESGGGLVQAGGSLRLSCAASGLIFSAYAMGWYRQAPGKERELVAAISRRGTSTYYADSVKGRFTISRDNAKNTVYLQMNSLKPEDTGVYYCAADGYVFEGDYWGQGTQVTVSS”, the “polyreactivity (PSR sort gate)” value was “high polyreactivity”. As to “QVQLVESGGGLVQAGGSLRLSCAASGLIFSAYAMGWYRQAPGKERELVAGISRRGSTYYADSVKGRFTISRDNAKNTVYLEMNCLKPEDTAVYYFAAFFRVRFRASGYDYWGQGTQVTVSS”, the “polyreactivity (PSR sort gate)” value is “high polyreactivity”. In the case of “QVQLVESGGGLVQAGGSLRLSCAASGLIFSRNAMGWNRPAPGKERELVAAISTGGSTYYADSVKGRFTISRDNAKNTVYLQMNRLKPVDTAVYYCAAAPGYIYEYWGQGTQVTVSS” it was “low polyreactivity”; in that of “QVQLVESGGGLVQAGGSLRLSCAASGLIFSRYTMGWYRQAPGKERELVAAISKTGSSTYYADSVKGRFTISRDNAKNTVYLQMNSLKPEDTAVYYCAAETGTGETRYYRYWDYYYWGQGTQVTVSS”, “high polyreactivity”.
